Experimental data published in publication PMC3720794.

Legend:
Assay in all cases: pre-steady-state rapid-quench kinetics
[1] = biological target: MGMT G156C (Homo sapiens, UniProt P16455 1-207, G156C)
[2] = biological target: MGMT G132R (Homo sapiens, UniProt P16455 1-207, G132R)
[3] = biological target: MGMT WT (Homo sapiens, UniProt P16455 1-207)
Sequence of MGMT WT (P16455 whole entry): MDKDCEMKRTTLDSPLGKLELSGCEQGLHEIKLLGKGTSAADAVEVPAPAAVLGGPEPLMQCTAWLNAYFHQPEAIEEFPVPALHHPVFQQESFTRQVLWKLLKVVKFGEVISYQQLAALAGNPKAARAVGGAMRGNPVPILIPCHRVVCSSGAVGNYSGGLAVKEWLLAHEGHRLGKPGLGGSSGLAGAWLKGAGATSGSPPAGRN

Sequence of MGMT G156C (P16455 whole entry G156C): as the sequence (P16455 whole entry) above, with G156C counted along it
Sequence of MGMT G132R (P16455 whole entry G132R): as the sequence (P16455 whole entry) above, with G132R counted along it

B1: PvuIITopD/PvuIIBottom (O6MeG 18 bp duplex) (dsDNA)
DNA 1: GCCCGGCCAGCTGCAGTT
DNA 2: AACTGCAGCTGGCCGGGC
modifications: O6-methylguanine at position 13 of strand 1 (printed as X), paired with C
Kd [1]: 240 ± 60 nM | Kd [2]: 14 ± 3 nM | Kd [3]: 6.2 ± 0.7 nM
